We go through five molecules from patent US20040102388.

The target in data set [1] is FVII-PRPSRKRR (UniProt P08709).
Data set [2] has as its target FVII-RKR (UniProt P08709).
Data set [3] deals with FVII-RKRRKR (UniProt P08709).
The target in data set [4] is wild type FVII (human Factor VII) (UniProt P08709).
Data set [5] has as its target soluble Tissue factor.

On to Factor Xa, for which the “FXa activation: conversion of single-chain zymogen to two-chain material (reducing gel)” value in data set [1] was “the single-chain zymogen protein in all but FVII-INS was nearly completely converted to two-chain material”; in data set [2], “the single-chain zymogen protein in all but FVII-INS was nearly completely converted to two-chain material”; in data set [3], “the single-chain zymogen protein in all but FVII-INS was nearly completely converted to two-chain material”; in data set [4] it was “modified FVII, like wild type FVII, is autoactivated by (A) soluble Tissue factor (sTF) and (B) Factor Xa”. The “FXa concentration giving complete cleavage of zymogen” value in data set [1] is recorded as “Addition of 1 µM FXa (i.e 50 fold higher than for the other FVIIa proteins) resulted in complete cleavage of zymogen FVII-INS”.

B1: FVII-RKRRKR (protein)
chain: ANAFLEELRPGSLERECKEEQCSFEEAREIFKDAERTKLFWISYSDGDQCASSPCQNGGSCKDQLQSYICFCLPAFEGRNCETHKDDQLICVNENGGCEQYCSDHTGTKRSCRCHEGYSLLADGVSCTPTVEYPCGKIPILEKRNASKPQGRRKRRKRRKRIVGGKVCPKGECPWQVLLLVNGAQLCGGTLINTIWVVSAAHCFDKIKNWRNLIAVLGEHDLSEHDGDEQSRRVAQVIIPSTYVPGTTNHDIALLRLHQPVVLTDHVVPLCLPERTFSERTLAFVRFSLVSGWGQLLDRGATALELMVLNVPRLMTQDCLQQSRKVGDSPNITEYMFCAGYSDGSKDSCKGDSGGPHATHYRGTWYLTGIVSWGQGCATVGHFGVYTRVSQYIEWLQKLMRSEPRPGVLLRAPFP
In the case of B1, the “autoactivation: cleavage of single-chain zymogen to two-chain FVIIa (reducing gel)” value (“autoactivation: cleavage … (reducing gel)” below) in data set [5] is listed as “all modified FVIIa contain single-chain material that can be cleaved”.

B2: FVII-RKR (protein)
chain: ANAFLEELRPGSLERECKEEQCSFEEAREIFKDAERTKLFWISYSDGDQCASSPCQNGGSCKDQLQSYICFCLPAFEGRNCETHKDDQLICVNENGGCEQYCSDHTGTKRSCRCHEGYSLLADGVSCTPTVEYPCGKIPILEKRNASKPQGRRKRIVGGKVCPKGECPWQVLLLVNGAQLCGGTLINTIWVVSAAHCFDKIKNWRNLIAVLGEHDLSEHDGDEQSRRVAQVIIPSTYVPGTTNHDIALLRLHQPVVLTDHVVPLCLPERTFSERTLAFVRFSLVSGWGQLLDRGATALELMVLNVPRLMTQDCLQQSRKVGDSPNITEYMFCAGYSDGSKDSCKGDSGGPHATHYRGTWYLTGIVSWGQGCATVGHFGVYTRVSQYIEWLQKLMRSEPRPGVLLRAPFP
As for B2, the “autoactivation: cleavage … (reducing gel)” value in data set [5] is “all modified FVIIa contain single-chain material that can be cleaved”.

B3: wild type FVII (human Factor VII) (protein)
chain: ANAFLEELRPGSLERECKEEQCSFEEAREIFKDAERTKLFWISYSDGDQCASSPCQNGGSCKDQLQSYICFCLPAFEGRNCETHKDDQLICVNENGGCEQYCSDHTGTKRSCRCHEGYSLLADGVSCTPTVEYPCGKIPILEKRNASKPQGRIVGGKVCPKGECPWQVLLLVNGAQLCGGTLINTIWVVSAAHCFDKIKNWRNLIAVLGEHDLSEHDGDEQSRRVAQVIIPSTYVPGTTNHDIALLRLHQPVVLTDHVVPLCLPERTFSERTLAFVRFSLVSGWGQLLDRGATALELMVLNVPRLMTQDCLQQSRKVGDSPNITEYMFCAGYSDGSKDSCKGDSGGPHATHYRGTWYLTGIVSWGQGCATVGHFGVYTRVSQYIEWLQKLMRSEPRPGVLLRAPFP
As to B3, in data set [5], the “autoactivation: cleavage … (reducing gel)” value is on record as “single-chain protein (zymogen) in the FVII or the FVIIa preparations was cleaved to yield a two-chain material (FVIIa)”.

B4: FVII-PRPSRKRR (protein)
chain: ANAFLEELRPGSLERECKEEQCSFEEAREIFKDAERTKLFWISYSDGDQCASSPCQNGGSCKDQLQSYICFCLPAFEGRNCETHKDDQLICVNENGGCEQYCSDHTGTKRSCRCHEGYSLLADGVSCTPTVEYPCGKIPILEKRNASKPQGRPRPSRKRRIVGGKVCPKGECPWQVLLLVNGAQLCGGTLINTIWVVSAAHCFDKIKNWRNLIAVLGEHDLSEHDGDEQSRRVAQVIIPSTYVPGTTNHDIALLRLHQPVVLTDHVVPLCLPERTFSERTLAFVRFSLVSGWGQLLDRGATALELMVLNVPRLMTQDCLQQSRKVGDSPNITEYMFCAGYSDGSKDSCKGDSGGPHATHYRGTWYLTGIVSWGQGCATVGHFGVYTRVSQYIEWLQKLMRSEPRPGVLLRAPFP
For B4, the “autoactivation: cleavage … (reducing gel)” value in data set [5] is “all modified FVIIa contain single-chain material that can be cleaved”.
